Common to all, as to test: fluorescence polarization
For orientation: In fluorescence polarisation assays a small probe gives low polarisation when free and higher when bound to something large.

The target in test [1] is T1, NCOA1 NR2 peptide (Homo sapiens).
T1 chain: Fluorescein-LTARHKILHRLLQEGSPSD

Test [2] deals with T2, NCOA1 NR2 peptide (Homo sapiens).
T2 chain: Fluorescein-LTARHKILHRLLQEGSPSD

The target of test [3] is T3, NCOA1 NR2 peptide (Homo sapiens).
T3 chain: Fluorescein-LTARHKILHRLLQEGSPSD

Ends that are not written are not given here.

B1: VDR LBD 156-453 (protein)
chain: LSDEQMQIINSLVEAHHKTYDDSYSDFVRFRPPVREGPVTRSASRAASLHSLSDASSDSFNHSPESVDTKLNFSNLLMMYQDSGSPDSSEEDQQSRLSMLPHLADLVSYSIQKVIGFAKMIPGFRDLTAEDQIALLKSSAIEIIMLRSNQSFSLEDMSWSCGGPDFKYCINDVTKAGHTLELLEPLVKFQVGLKKLKLHEEEHVLLMAICLLSPDRPGVQDHVRIEALQDRLCDVLQAYIRIQHPGGRLLYAKMIQKLADLRSLNEEHSKQYRSLSFQPEHSMQLTPLVLEVFGSEVS
With B1, the figures for the Kd with NCOA1 NR2 peptide [1], with NCOA1 NR2 peptide [2] and with NCOA1 NR2 peptide [3] were 540 nM, 500 nM and 480 nM, respectively.
